Source: article PMC3899036, “Subunit Positioning and Stator Filament Stiffness in Regulation and Power Transmission in the V1 Motor of the Manduca sexta V-ATPase^☆” (Journal of Molecular Biology, 2014)
One block for each molecule: values may come before it.

What was measured:
[1] = target: recombinant His6-tagged V-ATPase subunit C (Manduca sexta) (UniProt Q9U5N1); test: SEC; V1 incubated with C-His6, Superose-6 column, 20 mM Tris-HCl, 100 mM NaCl, 10 mM KCl, 2 mM 2-mercaptoethanol, pH 8.0, 0.25 ml/min; fractions on SDS-PAGE with densitometry; apparent stoichiometry
recombinant His6-tagged V-ATPase subunit C (Manduca sexta), sequence (Q9U5N1 whole entry): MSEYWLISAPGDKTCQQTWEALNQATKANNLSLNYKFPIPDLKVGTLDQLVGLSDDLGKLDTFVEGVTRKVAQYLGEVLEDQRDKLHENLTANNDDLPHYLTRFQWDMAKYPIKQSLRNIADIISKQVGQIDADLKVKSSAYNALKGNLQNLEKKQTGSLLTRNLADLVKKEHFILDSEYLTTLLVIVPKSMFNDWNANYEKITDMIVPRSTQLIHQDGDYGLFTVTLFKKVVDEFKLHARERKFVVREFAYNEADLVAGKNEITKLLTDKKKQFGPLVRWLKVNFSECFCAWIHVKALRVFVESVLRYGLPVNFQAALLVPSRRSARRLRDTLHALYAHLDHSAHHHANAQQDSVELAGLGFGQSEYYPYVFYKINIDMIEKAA

[2] = target: T1, Manduca sexta V-ATPase subunit B (Manduca sexta (tobacco hornworm), UniProt P31401 1-494); test: cryo-EM structure; V1 mixed with recombinant C for 1 h at 4 °C (1:5 V1:C molar ratio), Lacey grids, plunge-frozen; 20 Å reconstruction of V1(+C), homologous crystal structures fitted; details: both partners purified
T1 construct: V-ATPase subunit B, Manduca sexta; 56 kDa on SDS-PAGE; Seen as part of the V1 complex in the cryo-EM reconstruction; also called B subunits; source: endogenous, within V1 purified from Manduca sexta
T1 sequence (P31401 whole entry): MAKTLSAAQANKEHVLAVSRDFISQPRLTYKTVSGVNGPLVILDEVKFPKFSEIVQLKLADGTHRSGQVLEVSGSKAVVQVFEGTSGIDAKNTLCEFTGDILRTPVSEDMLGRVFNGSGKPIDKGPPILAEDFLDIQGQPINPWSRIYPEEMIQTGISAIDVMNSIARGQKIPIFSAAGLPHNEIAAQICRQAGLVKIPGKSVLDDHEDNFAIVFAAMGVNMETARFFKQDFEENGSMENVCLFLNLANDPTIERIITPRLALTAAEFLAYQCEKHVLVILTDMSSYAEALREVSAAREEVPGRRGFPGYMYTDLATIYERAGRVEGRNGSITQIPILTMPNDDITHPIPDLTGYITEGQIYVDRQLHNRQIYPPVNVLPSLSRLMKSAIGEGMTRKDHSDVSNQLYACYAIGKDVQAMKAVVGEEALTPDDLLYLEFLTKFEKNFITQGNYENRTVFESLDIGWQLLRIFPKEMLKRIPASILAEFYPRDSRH

stoichiometry N (C per V1 (1 per H, 1 per 3 A)) [1]: 1
Molecule: Manduca sexta V-ATPase V1 domain (deactivated, washed with 25% methanol to remove residual subunit C) (complex)

binding result [2]: binds
B1: Manduca sexta V-ATPase subunit E (natural protein, Manduca sexta (tobacco hornworm), UniProt P31402 1-226, looked up)
chain: MALSDADVQKQIKHMMAFIEQEANEKAEEIDAKAEEEFNIEKGRLVQQQRLKIMEYYEKKEKQVELQKKIQSSNMLNQARLKVLKVREDHVRNVLDEARKRLAEVPKDIKLYSDLLVTLIVQALFQLVEPTVTLRVRQADKALVESLLGRAQQDYKAKIKKDVVLKIDNENFLPPDTCGGIELIAAKGRIKISNTLESRLELIAQQLLPEIRNALFGRNPNRKFTD
notes: V-ATPase subunit E, Manduca sexta; 26 kDa on SDS-PAGE; Seen as part of the V1 complex in the cryo-EM reconstruction; also called subunit E of the E/G stator filaments S1-S3; source: endogenous, within V1 purified from Manduca sexta
